In the supplement of paper PMC7877785:
± gives the uncertainty stated by the source.

Assay: self-splicing fitness, log relative to wild type (ln ratio); higher = more splicing; Tetrahymena group I intron in knt gene, E. coli kanamycin selection, DiMSum; sequences stand for … in CUCUCU…GGAGGGAAAAGUUAUCAGGCAUGCACCUGGUAGCUAGUCUUUAAACCAAUAGAUUGCAUCGGUUUAAAAGGCAAGACCGUCAAAUUGCGGGAAAGGGGUCAACAGCCGUUCAGUACCAAGUCUCAGGGGAAACUUUGAGAUGGCCUUGCAAAGGGUAUGGUAAUAAGCUGACGGACAUGGUCCUAACCACGCAGCCAAGUCCUAAGUCAACAGAUCUUCUGUUGAUAUGGAUGCAGUUCACAGACUAAAUGUCGGUCGGGGAAGAUGUAUUCUUCUCAUAAGAUAUAGUCGGACCUCUCCUUAAUGGGAGCUAGCGGAUGAAGUGAUGCAACACUGGAGCCGCUGGGAACUAAUUUGUAUGCGAAAGUAUAUUGAUUAGUUUUGGAGUACUCGUGGUCG
Procedure, shortened: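 Colonies from six replicate transformations of E. coli BL21(DE3) were pooled and amplicon-sequenced on an Illumina HiSeq 2500. The library placed an intron with all eight P1ex-region nucleotides randomised inside the knt kanamycin-resistance gene on pET-22b(+), and cells grew overnight at 37°C or 30°C on LB agar with or without 25 μg/mL kanamycin (plus 100 μg/mL carbenicillin, 50 μM IPTG, 0.2% rhamnose). Fitness is the DiMSum error-weighted combination of wild-type-normalised replicate fold changes, kanamycin versus none.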

Sequence | self-splicing fitness (ln) (30 °C) | self-splicing fitness (ln) (37 °C)
UCGUAGCAAUAUUACGUGAU | -2.2 ± 0.2 | -1.48 ± 0.46
UCGUAGCAAUAUUACGUGGU | -3.45 ± 0.4 | -2.67 ± 0.48
UCGUAGCAAUAUUACGUGUU | -3.06 ± 0.21 | -2.46 ± 0.19
UCUAAGCAAUAUUACGACCU | -3.7 ± 0.35 | -1.92 ± 0.24
UCUAAGCAAUAUUACGACGU | -0.257 ± 0.087 | -0.334 ± 0.11
UCUAAGCAAUAUUACGAGAC | -1.53 ± 0.12 | -2.52 ± 0.2
UCUAAGCAAUAUUACGAUCC | -3.87 ± 0.39 | -2.5 ± 0.36
UCUAAGCAAUAUUACGCUAG | -2.73 ± 0.16 | -2.89 ± 0.26
UCUAAGCAAUAUUACGCUCU | -3.32 ± 0.47 | -2.58 ± 0.41
UCUAAGCAAUAUUACGGAAU | -4.16 ± 0.46 | -1.64 ± 0.33
UCUAAGCAAUAUUACGGACC | -1.71 ± 0.24 | -1.99 ± 0.32
UCUAAGCAAUAUUACGGAGU | -2.04 ± 0.13 | -0.505 ± 0.14
UCUAAGCAAUAUUACGGCCU | -3.76 ± 0.41 | –
UCUAAGCAAUAUUACGGUAC | -3.5 ± 0.3 | -2.78 ± 0.4
UCUAAGCAAUAUUACGGUAU | -4.13 ± 0.27 | -1.56 ± 0.21
UCUAAGCAAUAUUACGGUUA | -3.9 ± 0.42 | -1.76 ± 0.17
UCUAAGCAAUAUUACGUAUA | -2.55 ± 0.17 | -1.45 ± 0.12
UCUAAGCAAUAUUACGUAUU | -3.09 ± 0.2 | -2.16 ± 0.2
UCUAAGCAAUAUUACGUCAG | -1.23 ± 0.073 | -0.611 ± 0.08

Sequence | self-splicing fitness (ln) (30 °C) | self-splicing fitness (ln) (37 °C)
UCUAAGCAAUAUUACGUCCU | -2.72 ± 0.28 | -0.964 ± 0.21
UCUAAGCAAUAUUACGUGAG | -1.32 ± 0.074 | 0.269 ± 0.096
UCUAAGCAAUAUUACGUGCU | -4.04 ± 0.34 | -2.37 ± 0.2
UCUAAGCAAUAUUACGUUCG | -1.38 ± 0.12 | -1.12 ± 0.12
UCUCAGCAAUAUUACGAAAA | -1.84 ± 0.26 | -2.59 ± 0.26
UCUCAGCAAUAUUACGAACG | -1.88 ± 0.12 | -0.666 ± 0.14
UCUCAGCAAUAUUACGAAGG | -2.79 ± 0.19 | -0.314 ± 0.14
UCUCAGCAAUAUUACGAGAC | -2.81 ± 0.15 | -2.71 ± 0.21
UCUCAGCAAUAUUACGCAAG | -4.47 ± 0.39 | -2.02 ± 0.2
UCUCAGCAAUAUUACGCGUA | -1.04 ± 0.1 | -0.966 ± 0.1
UCUCAGCAAUAUUACGCUCC | -1.02 ± 0.39 | –
UCUCAGCAAUAUUACGGCCU | – | -1.67 ± 0.34
UCUCAGCAAUAUUACGGGAA | -2.28 ± 0.17 | -0.762 ± 0.11
UCUCAGCAAUAUUACGGGAG | -2.79 ± 0.2 | -1.4 ± 0.16
UCUCAGCAAUAUUACGGGAU | -4.25 ± 0.27 | -2.87 ± 0.19
UCUCAGCAAUAUUACGGGCA | -0.117 ± 0.073 | 0.575 ± 0.09
UCUCAGCAAUAUUACGGGGC | -3.03 ± 0.23 | -3.85 ± 0.37
UCUCAGCAAUAUUACGGGUU | -2.06 ± 0.081 | -1.27 ± 0.1
UCUCAGCAAUAUUACGGUUU | -1.91 ± 0.082 | -0.695 ± 0.081
